Assay results: CN116731161A (UNIV NANKAI, dated 2023)

Target: T1, FcγRI (UniProt P12314 16-288)
T1 construct: also called CD64
Assay: SPR (Biacore T200), His-tagged target captured on anti-His chip, antibody as analyte

T1 sequence (P12314 16-288 limits assumed): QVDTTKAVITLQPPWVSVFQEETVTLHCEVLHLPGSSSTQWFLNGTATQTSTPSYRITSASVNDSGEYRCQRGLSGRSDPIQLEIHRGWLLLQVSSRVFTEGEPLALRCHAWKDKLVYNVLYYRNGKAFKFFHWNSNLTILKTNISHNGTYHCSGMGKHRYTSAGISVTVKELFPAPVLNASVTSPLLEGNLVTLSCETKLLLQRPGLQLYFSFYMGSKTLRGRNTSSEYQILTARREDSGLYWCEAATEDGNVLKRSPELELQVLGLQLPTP

B1: X构型Rituximab抗体 (antibody, human IgG1, kappa)
heavy: not shown
light: QIVLSQSPAILSASPGEKVTMTCRASSSVSYIHWFQQKPGSSPKPWIYATSNLASGVPVRFSGSGSGTSYSLTISRVEAEDAATYYCQQWTSNPPTFGGGTKLEIKRTVAAPSVFIFPPSDEQLKSGTASVVCLLNNFYPREAKVQWKVDNALQSGNSQESVTEQDSKDSTYSLSSTLTLSKADYEKHKVYACEVTHQGLSSPVTKSFNRGECGGGGSGGGGSGGGGSGGGGSGGGGSGGGGSVPPPPPCCHPRLSLHRPALEDLLLGSEANLTCTLTGLRDASGVTFTWTPSSGKSAVQGPPERDLCGCYSVSSVLPGCAEPWNHGKTFTCTAAYPESKTPLTATLSKSGNTFRPEVHLLPPPSEELALNELVTLTCLARGFSPKDVLVRWLQGSQELPREKYLTWASRQEPSQGTTTFAVTSILRVAAEDWKKGDTFSCMVGHEALPLAFTQKTIDRLAGK
notes: also called X构型抗体; Rituximab X-body
binding result: binds
